One molecule from PMC8828546, “OsWRKY53 Promotes Abscisic Acid Accumulation to Accelerate Leaf Senescence and Inhibit Seed Germination by Downregulating Abscisic Acid Catabolic Genes in Rice” can be followed below.

The target of this data set is OsWRKY53 (Oryza sativa (rice), UniProt A7BEY7 1-487). The data set is described as follows: EMSA; unlabeled probe competitor at 10-, 50-, 100-fold also run (outcome only in gel); EMSA: room temperature, 20 min; binding buffer, salt and pH not stated; 6% native acrylamide gel, 0.5x TBE, 4 C, 110 V, 2 h. The following applies: protein: recombinant; tags: His; TF (pCold-TF vector); label: 5'-FAM on one strand; annealed with complementary oligo.
OsWRKY53, sequence (A7BEY7 entry or part of it): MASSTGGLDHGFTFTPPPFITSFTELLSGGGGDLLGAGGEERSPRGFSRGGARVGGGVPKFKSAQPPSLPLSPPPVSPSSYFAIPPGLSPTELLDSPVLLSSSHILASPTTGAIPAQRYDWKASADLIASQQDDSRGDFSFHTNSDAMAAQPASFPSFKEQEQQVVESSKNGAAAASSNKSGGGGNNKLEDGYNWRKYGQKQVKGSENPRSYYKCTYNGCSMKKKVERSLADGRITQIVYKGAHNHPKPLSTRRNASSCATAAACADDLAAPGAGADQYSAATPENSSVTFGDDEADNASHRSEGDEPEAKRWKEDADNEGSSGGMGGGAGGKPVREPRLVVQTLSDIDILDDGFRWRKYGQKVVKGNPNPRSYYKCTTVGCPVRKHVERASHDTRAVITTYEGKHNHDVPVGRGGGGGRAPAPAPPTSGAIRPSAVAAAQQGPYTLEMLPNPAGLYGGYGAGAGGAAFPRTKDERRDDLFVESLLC

B1: OsABA8ox1 promoter W-box probe (dsDNA)
DNA 1: ACAGGTTGACCTTTGCAT
DNA 2: ATGCAAAGGTCAACCTGT
B1: the binding result is recorded as “binds”.
